{"source": "patent US20150160219", "key": {"[1]": {"system": "Indicator molecule of Example 2 (peptide with one MMP9 cleavage site, first capture region ALP, terminal biotin via polyethylene glycol spacer)"}, "[2]": {"system": "Indicator molecule of Example 4 with 7 MMP9 cleavage sites (ALP first capture region, terminal biotin via PEG)"}, "[3]": {"system": "Indicator molecule of Example 5 with 3 MMP9 cleavage sites (terminal biotin, DNP, FITC)"}, "[4]": {"system": "Indicator molecule of Example 4 with 5 MMP9 cleavage sites (ALP first capture region, terminal biotin via PEG)"}, "[5]": {"system": "Indicator molecule of Example 4 with 3 MMP9 cleavage sites (ALP first capture region, terminal biotin via PEG)"}, "[6]": {"system": "Indicator molecule of Example 5 with 2 MMP9 cleavage sites (terminal biotin, DNP, FITC)"}, "[7]": {"system": "Indicator molecule of Example 3 (synthetic peptide with MMP-9 sequence, HNE sequence, DNP, fluorescent label and terminal biotin via PEG)"}, "[8]": {"system": "Indicator molecule of Example 5 with 4 MMP9 cleavage sites (terminal biotin, DNP, FITC)"}, "[9]": {"system": "Indicator molecule of Example 4 with 2 MMP9 cleavage sites (ALP first capture region, terminal biotin via PEG)"}}}
{"substance": "Matrix Metalloprotease-9 (MMP-9) (Mologic)", "values": [{"measurement": "detectable limit of the lateral flow cleavage assay", "setting": "[1]", "value": "approximately 250-500 ng/ml"}, {"measurement": "sensitivity of the assay", "setting": "[1]", "value": "250-500 ng/ml MMP9, seen with an indicator molecule having 1 cleavage site"}, {"measurement": "test line signal at 31.25 ng/ml MMP9", "setting": "[1]", "value": 0, "unit": "reader units"}, {"measurement": "test line signal at 62.5 ng/ml MMP9", "setting": "[1]", "value": 0, "unit": "reader units"}, {"measurement": "test line signal at 125 ng/ml MMP9", "setting": "[1]", "value": 0, "unit": "reader units"}, {"measurement": "test line signal at 250 ng/ml MMP9", "setting": "[1]", "value": 0, "unit": "reader units"}, {"measurement": "test line signal at 500 ng/ml MMP9", "setting": "[1]", "value": 1.93, "unit": "reader units"}, {"measurement": "test line signal at 1000 ng/ml MMP9", "setting": "[1]", "value": 4.52, "unit": "reader units"}, {"measurement": "test line signal at 2000 ng/ml MMP9", "setting": "[1]", "value": 8, "unit": "reader units"}, {"measurement": "sensitivity of the assay", "setting": "[2]", "value": "<31.25 ng/ml for an indicator molecule having 7 cleavage sites"}, {"measurement": "test line signal at 31.25 ng/ml MMP9", "setting": "[2]", "value": 2.27, "unit": "reader units"}, {"measurement": "test line signal at 62.5 ng/ml MMP9", "setting": "[2]", "value": 2.81, "unit": "reader units"}, {"measurement": "test line signal at 125 ng/ml MMP9", "setting": "[2]", "value": 3.25, "unit": "reader units"}, {"measurement": "test line signal at 250 ng/ml MMP9", "setting": "[2]", "value": 6.19, "unit": "reader units"}, {"measurement": "test line signal at 500 ng/ml MMP9", "setting": "[2]", "value": 9.31, "unit": "reader units"}, {"measurement": "test line signal at 1000 ng/ml MMP9", "setting": "[2]", "value": 21.3, "unit": "reader units"}, {"measurement": "test line signal at 2000 ng/ml MMP9", "setting": "[2]", "value": 25.3, "unit": "reader units"}, {"measurement": "cut-off of the assay", "setting": "[3]", "value": "The cut-off with all indicator molecules was below <31.25 ng/ml"}, {"measurement": "test line signal at 31.25 ng/ml MMP9", "setting": "[3]", "value": 1.45, "unit": "reader units"}, {"measurement": "test line signal at 62.5 ng/ml MMP9", "setting": "[3]", "value": 2.56, "unit": "reader units"}, {"measurement": "test line signal at 125 ng/ml MMP9", "setting": "[3]", "value": 3.1, "unit": "reader units"}, {"measurement": "test line signal at 250 ng/ml MMP9", "setting": "[3]", "value": 5.58, "unit": "reader units"}, {"measurement": "test line signal at 500 ng/ml MMP9", "setting": "[3]", "value": 9.04, "unit": "reader units"}, {"measurement": "test line signal at 1000 ng/ml MMP9", "setting": "[3]", "value": 11.6, "unit": "reader units"}, {"measurement": "test line signal at 2000 ng/ml MMP9", "setting": "[3]", "value": 17.9, "unit": "reader units"}, {"measurement": "test line signal at 31.25 ng/ml MMP9", "setting": "[4]", "value": 1.04, "unit": "reader units"}, {"measurement": "test line signal at 62.5 ng/ml MMP9", "setting": "[4]", "value": 1.36, "unit": "reader units"}, {"measurement": "test line signal at 125 ng/ml MMP9", "setting": "[4]", "value": 2.14, "unit": "reader units"}, {"measurement": "test line signal at 250 ng/ml MMP9", "setting": "[4]", "value": 5.01, "unit": "reader units"}, {"measurement": "test line signal at 500 ng/ml MMP9", "setting": "[4]", "value": 9.93, "unit": "reader units"}, {"measurement": "test line signal at 1000 ng/ml MMP9", "setting": "[4]", "value": 16.8, "unit": "reader units"}, {"measurement": "test line signal at 2000 ng/ml MMP9", "setting": "[4]", "value": 20.5, "unit": "reader units"}, {"measurement": "test line signal at 31.25 ng/ml MMP9", "setting": "[5]", "value": 0, "unit": "reader units"}, {"measurement": "test line signal at 62.5 ng/ml MMP9", "setting": "[5]", "value": 0, "unit": "reader units"}, {"measurement": "test line signal at 125 ng/ml MMP9", "setting": "[5]", "value": 0, "unit": "reader units"}, {"measurement": "test line signal at 250 ng/ml MMP9", "setting": "[5]", "value": 0.92, "unit": "reader units"}, {"measurement": "test line signal at 500 ng/ml MMP9", "setting": "[5]", "value": 3.84, "unit": "reader units"}, {"measurement": "test line signal at 1000 ng/ml MMP9", "setting": "[5]", "value": 7.57, "unit": "reader units"}, {"measurement": "test line signal at 2000 ng/ml MMP9", "setting": "[5]", "value": 10.5, "unit": "reader units"}, {"measurement": "cut-off of the assay", "setting": "[6]", "value": "The cut-off with all indicator molecules was below <31.25 ng/ml"}, {"measurement": "test line signal at 31.25 ng/ml MMP9", "setting": "[6]", "value": 1.36, "unit": "reader units"}, {"measurement": "test line signal at 62.5 ng/ml MMP9", "setting": "[6]", "value": 1.78, "unit": "reader units"}, {"measurement": "test line signal at 125 ng/ml MMP9", "setting": "[6]", "value": 3.46, "unit": "reader units"}, {"measurement": "test line signal at 250 ng/ml MMP9", "setting": "[6]", "value": 5.44, "unit": "reader units"}, {"measurement": "test line signal at 500 ng/ml MMP9", "setting": "[6]", "value": 6.87, "unit": "reader units"}, {"measurement": "test line signal at 1000 ng/ml MMP9", "setting": "[6]", "value": 5.48, "unit": "reader units"}, {"measurement": "test line signal at 2000 ng/ml MMP9", "setting": "[6]", "value": 12.8, "unit": "reader units"}, {"measurement": "cut-off of the assay", "setting": "[7]", "value": "The cut-off with all indicator molecules was below <31.25 ng/ml"}, {"measurement": "detectable limit of the lateral flow cleavage assay", "setting": "[7]", "value": "approximately 125-250 ng/ml"}, {"measurement": "test line signal at 31.25 ng/ml MMP9", "setting": "[7]", "value": 1.37, "unit": "reader units"}, {"measurement": "test line signal at 62.5 ng/ml MMP9", "setting": "[7]", "value": 1.28, "unit": "reader units"}, {"measurement": "test line signal at 125 ng/ml MMP9", "setting": "[7]", "value": 2.01, "unit": "reader units"}, {"measurement": "test line signal at 250 ng/ml MMP9", "setting": "[7]", "value": 3.34, "unit": "reader units"}, {"measurement": "test line signal at 500 ng/ml MMP9", "setting": "[7]", "value": 3.73, "unit": "reader units"}, {"measurement": "test line signal at 1000 ng/ml MMP9", "setting": "[7]", "value": 4.33, "unit": "reader units"}, {"measurement": "test line signal at 2000 ng/ml MMP9", "setting": "[7]", "value": 8.7, "unit": "reader units"}, {"measurement": "cut-off of the assay", "setting": "[8]", "value": "The cut-off with all indicator molecules was below <31.25 ng/ml"}, {"measurement": "test line signal at 31.25 ng/ml MMP9", "setting": "[8]", "value": 2.69, "unit": "reader units"}, {"measurement": "test line signal at 62.5 ng/ml MMP9", "setting": "[8]", "value": 2.94, "unit": "reader units"}, {"measurement": "test line signal at 125 ng/ml MMP9", "setting": "[8]", "value": 5.63, "unit": "reader units"}, {"measurement": "test line signal at 250 ng/ml MMP9", "setting": "[8]", "value": 10.1, "unit": "reader units"}, {"measurement": "test line signal at 500 ng/ml MMP9", "setting": "[8]", "value": 11.2, "unit": "reader units"}, {"measurement": "test line signal at 1000 ng/ml MMP9", "setting": "[8]", "value": 16.3, "unit": "reader units"}, {"measurement": "test line signal at 2000 ng/ml MMP9", "setting": "[8]", "value": 16.2, "unit": "reader units"}, {"measurement": "test line signal at 31.25 ng/ml MMP9", "setting": "[9]", "value": 0.68, "unit": "reader units"}, {"measurement": "test line signal at 62.5 ng/ml MMP9", "setting": "[9]", "value": 0.32, "unit": "reader units"}, {"measurement": "test line signal at 125 ng/ml MMP9", "setting": "[9]", "value": 0.57, "unit": "reader units"}, {"measurement": "test line signal at 250 ng/ml MMP9", "setting": "[9]", "value": 1.99, "unit": "reader units"}, {"measurement": "test line signal at 500 ng/ml MMP9", "setting": "[9]", "value": 3.48, "unit": "reader units"}, {"measurement": "test line signal at 1000 ng/ml MMP9", "setting": "[9]", "value": 12, "unit": "reader units"}, {"measurement": "test line signal at 2000 ng/ml MMP9", "setting": "[9]", "value": 11.8, "unit": "reader units"}]}
